# From patent publication US7799901B2, “Modulators of the function of FAS receptors and other proteins” (Yeda Research and Development Co. Ltd., priority 1995, dated 2010)
# Entries after “also recorded” stand apart in the source; their conditions may differ.
# B1: MACHα3: MACH isoform, cDNA SEQ ID NO: 19, amino acid SEQ ID NO: 20; lacks an N-terminal part of the CED3/ICE region (protein)
# chain: KCKLDDDMNLLDIFIEMEKRVILGEGKLDILKRVCAQINKSLLKIINDYEEFSKGALTTTFEELHFEIKPHDDCTVEQIYEILKIYQLMDHSNMDCFICCILSHGDKGIIYGTDGQEAPIYELTSQFTGLKCPSLAGKPKVFFIQACQGDNYQKGIPVETDSEEQPYLEMDLSSPQTRYIPDEADFLLGMATVNNCVSYRNPAEGTWYIQSLCQSLRERCPRGDDILTILTEVNYEVSNKDDKKNMGKQMPQPTFTLRKKLVFPSD
# How the values were obtained:
# [1] = test system: breast carcinoma MCF7 cells; assay: Cell death on overexpression of MACH isoforms in MCF7 cells; assay type: cell-based, human; conditions: β-galactosidase-expressing cells with apoptopic morphology, 20 h after transfection
# Protocol: (§1) To explore the involvement of MACH in cell-death induction, the effect of overexpression of various MACH isoforms on cell viability was examined. The test was performed by transfecting MACH expression vectors together with a β-galactosidase expression vector as a transfection marker into human embryonic kidney 293-EBNA cells and breast carcinoma MCF7 cells.
# (§2) In brief, 293-EBNA cells, MCF7 human breast carcinoma cells and HeLa HtTA-1 cells were grown in Dulbecco's modified Eagle's minimal essential medium supplemented with 10% fetal calf serum, nonessential amino acids, 100 U/ml penicillin and 100 μg/ml streptomycin. Cell tissue culture dishes (5×10^5 293-EBNA cells, 3×10^5 s MCF7 cells or 3×10^5 HeLa cells in 6-cm dishes) were transiently transfected, using the calcium phosphate precipitation method, with the cDNAs of the indicated proteins together with the β-galactosidase expression vector. In the experiments presented in FIGS. 14A-D and 15, each dish was transfected with 3.5 μg of the indicated MACH construct and 1.5 μg of pSV-β-gal. In the experiments presented in FIGS. 16A-D and 17-19, each dish was transfected with 2.5 μg of the indicated MACH or MORT1 construct (or, as control, empty vector) and 1.5 μg of pSV-β-gal. The cells were rinsed 6 to 10 h after transfection. The 293-EBNA and MCF7 cells were incubated for a further 18 h without additional treatment. The HeLa cells were incubated for 26 h after transfection and-then for 5 h in the presence of either anti-Fas.APO1 antibody (CH11, 0.5 μg/ml) or TNF (100 ng/ml), together with cycloheximide (10 μg/ml). The extent of cell death at the end of the incubation periods was assessed by determination of β-galactosidase expression, as described by Kumar et al, 1994.
# (§3) In particular, FIGS. 14A-D show the morphology of human embryonic kidney 293-EBNA cells transiently expressing the indicated MACH isoforms. The arrows (FIG. 14B) point to apoptopic cells. Photographs were taken 26 h after transfection. […] Data are from three independent experiments with the 293-EBNA cells and two independent experiments with the MCF7 cells.
# HeLa cells = assay: Cell death on overexpression of MACH isoforms in HeLa cells; assay type: cell-based; conditions: FIG. 19
# Protocol: as §2
# To examine the involvement of the CED3/ICE homology region within the MACHα isoforms in their apoptopic effects, cells were transfected with the expression vector for the MACHβ1 isoform, which lacks the CED3/ICE homology region, as well as with expression vectors for MACHα3, which lacks an N-terminal part of the region, and with expression vectors for MACHα1 (C360S) and for a C-terminally truncated mutant of MACHα1 (MACHα1 (1-415)), which lacks one of the residues believed to be critical for CED3/ICE protease function (corresponding to Ser347 in ICE). […]
# [2] = test system: Fas/APO1 cytotoxicity (p55-Fas chimera) in 293-EBNA cells; assay type: cell-based, human; conditions: co-transfection
# Protocol: as §2, with “The HeLa cells were incubated for 26 h after transfection and-then for 5 h in the presence of either anti-Fas.APO1 antibody (CH11, 0.5 μg/ml) or TNF (100 ng/ml), together with cycloheximide (10 μg/ml).” left out, “1994. […]” for “1994.”
# (§4) In particular, FIGS. 16A-D show morphology of 293-EBNA cells in which cell death was induced by transient expression of a chimera comprised of the extracellular domain of the p55-R (amino acids 1-168) fused to the transmembrane and intracellular domains of Fas/APO1 (amino acids 153-319) (p55-Fas chimera) (FIGS. 16A and 16B), or by expression of the p55-R (FIGS. 16C and 16D), and of cells that were protected from these cytotoxic effects by their simultaneous transfection with MACHα1 (C360S) (FIGS. 16B and 16D). […] FIG. 17 illustrates the quantification of death induced in 293-EBNA cells by their transfection with p55-Fas chimera or with p55-R, together with an empty vector, a MORT1 deletion mutant lacking the MACH-binding region (MORT1 (92-208)), or MACHα molecules containing a nonfunctional CED3/ICE region. […] Data are from at least two independent experiments and are expressed as in FIGS. 14A-F and 15.
# [3] = test system: TNF-induced death of HeLa cells; assay: Death of HeLa cells induced by TNF and cycloheximide; assay type: cell-based, human; conditions: TNF 100 ng/ml, cycloheximide 10 μg/ml
# Protocol: as §2, with “1994. […]” for “1994.”
# [4] = test system: Fas/APO1-induced death of HeLa cells; assay: Death of HeLa cells expressing Fas/APO1 induced by anti-Fas/APO1 antibody and cycloheximide; assay type: cell-based, human; conditions: HeLa cells transiently expressing Fas/APO1; CH11 0.5 μg/ml, cycloheximide 10 μg/ml
# Protocol: as §2
# The HeLa cells were made responsive to Fas/APO1 by transient expression of this receptor. […] These protective effects indicate that MACHα is a necessary component of both the Fas/APO1- and the p55-R-induced signaling cascades for cell death.
# In particular, FIGS. 16A-D show morphology of 293-EBNA cells in which cell death was induced by transient expression of a chimera comprised of the extracellular domain of the p55-R (amino acids 1-168) fused to the transmembrane and intracellular domains of Fas/APO1 (amino acids 153-319) (p55-Fas chimera) (FIGS. 16A and 16B), or by expression of the p55-R (FIGS. 16C and 16D), and of cells that were protected from these cytotoxic effects by their simultaneous transfection with MACHα1 (C360S) (FIGS. 16B and 16D). Photographs were taken 26 h after transfection. FIG. 17 illustrates the quantification of death induced in 293-EBNA cells by their transfection with p55-Fas chimera or with p55-R, together with an empty vector, a MORT1 deletion mutant lacking the MACH-binding region (MORT1 (92-208)), or MACHα molecules containing a nonfunctional CED3/ICE region. […] Data are from at least two independent experiments and are expressed as in FIGS. 14A-F and 15.
# [5] = test system: human embryonic kidney 293-EBNA cells; assay: Cell death on overexpression of MACH isoforms in 293-EBNA cells; assay type: cell-based; conditions: β-galactosidase-expressing cells with apoptopic morphology, 20 h after transfection
# Protocol: as §1, §2, §3
# [6] = test system: p55-R-induced cytotoxicity in 293-EBNA cells; assay: Death of 293-EBNA cells induced by over-expression of p55-R; assay type: cell-based, human; conditions: co-transfection
# Protocol: as §2, with “The HeLa cells were incubated for 26 h after transfection and-then for 5 h in the presence of either anti-Fas.APO1 antibody (CH11, 0.5 μg/ml) or TNF (100 ng/ml), together with cycloheximide (10 μg/ml).” left out, “1994. […]” for “1994.”
# as §4
molecule,measurement,setting,value
B1,cell death of transfected MCF7 cells,[1],No death
same,cytotoxicity in transfected HeLa cells,HeLa cells,somewhat cytotoxic
same,protection against Fas/APO1 cytotoxicity (p55-Fas chimera),[2],effective protection
same,protection against death induced by TNF and cycloheximide,[3],effective protection
same,protection against death induced by anti-Fas/APO1 antibody and cycloheximide,[4],effective protection; also recorded: prevention
same,cell death of transfected 293-EBNA cells,[5],No death
same,protection against p55-R-induced cytotoxicity,[6],effective protection
